Experimental data from IntAct's records for PubMed 29039417.

B1: BBSome complex member BBS1 (Homo sapiens), Q8NFJ9 (parent)
chain: MAAASSSDSDACGAESNEANSKWLDAHYDPMANIHTFSACLALADLHGDGEYKLVVGDLGPGGQQPRLKVLKGPLVMTESPLPALPAAAATFLMEQHEPRTPALALASGPCVYVYKNLRPYFKFSLPQLPPNPLEQDLWNQAKEDRIDPLTLKEMLESIRETAEEPLSIQSLRFLQLELSEMEAFVNQHKSNSIKRQTVITTMTTLKKNLADEDAVSCLVLGTENKELLVLDPEAFTILAKMSLPSVPVFLEVSGQFDVEFRLAAACRNGNIYILRRDSKHPKYCIELSAQPVGLIRVHKVLVVGSTQDSLHGFTHKGKKLWTVQMPAAILTMNLLEQHSRGLQAVMAGLANGEVRIYRDKALLNVIHTPDAVTSLCFGRYGREDNTLIMTTRGGGLIIKILKRTAVFVEGGSEVGPPPAQAMKLNVPRKTRLYVDQTLREREAGTAMHRAFQTDLYLLRLRAARAYLQALESSLSPLSTTAREPLKLHAVVQGLGPTFKLTLHLQNTSTTRPVLGLLVCFLYNEALYSLPRAFFKVPLLVPGLNYPLETFVESLSNKGISDIIKVLVLREGQSAPLLSAHVNMPGSEGLAAA
partner: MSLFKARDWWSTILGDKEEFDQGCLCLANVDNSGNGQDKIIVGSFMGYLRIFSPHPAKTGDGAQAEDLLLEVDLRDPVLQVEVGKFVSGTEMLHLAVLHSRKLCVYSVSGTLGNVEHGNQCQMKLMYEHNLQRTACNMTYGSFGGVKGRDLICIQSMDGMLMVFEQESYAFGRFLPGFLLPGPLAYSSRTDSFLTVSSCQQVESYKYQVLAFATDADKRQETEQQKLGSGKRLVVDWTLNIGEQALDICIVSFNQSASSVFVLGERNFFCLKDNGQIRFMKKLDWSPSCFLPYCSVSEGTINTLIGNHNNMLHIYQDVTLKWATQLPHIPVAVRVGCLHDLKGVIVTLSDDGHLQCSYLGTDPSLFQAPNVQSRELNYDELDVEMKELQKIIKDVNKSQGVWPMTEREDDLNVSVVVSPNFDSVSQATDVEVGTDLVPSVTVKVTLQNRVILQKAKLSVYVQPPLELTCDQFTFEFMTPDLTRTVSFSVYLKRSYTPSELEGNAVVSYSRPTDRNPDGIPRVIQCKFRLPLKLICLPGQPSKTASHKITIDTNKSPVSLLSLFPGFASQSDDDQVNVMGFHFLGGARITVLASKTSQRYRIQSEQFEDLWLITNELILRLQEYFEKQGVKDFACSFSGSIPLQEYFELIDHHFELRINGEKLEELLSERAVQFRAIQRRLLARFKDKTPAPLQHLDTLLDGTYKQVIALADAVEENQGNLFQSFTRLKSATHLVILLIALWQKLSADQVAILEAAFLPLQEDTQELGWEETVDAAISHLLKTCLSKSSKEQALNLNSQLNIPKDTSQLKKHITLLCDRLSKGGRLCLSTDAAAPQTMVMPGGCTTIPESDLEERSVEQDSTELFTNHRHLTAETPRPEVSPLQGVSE

Variants of: B1
Details: with pthb1_human BBS9, Q3SYG4

| Variant | effect of a mutation on the interaction |
| --- | --- |
| MAAASSSDSDACGAESNEANSKWLDAHYDPMANIHTFSACLALADLHGDGEYKLVVGDLGPGGQQPRLKVLKGPLVMTESPLPALPAAAATFLMEQHEPRTPALALASGPCVYVYKNLRPYFKFSLPQLPPNPLEQDLWNQAKEDRIDPLTLKEMLESIRETAEEPLSIQSLRFLQLELSEMEAFVNQHKSNSIKRQTVITTMTTLKKNLADEDAVSCLVLGTENKELLVLDPEAFTILAKMSLPSVPVFLEVSGQFDVEFRLAAACRNGNIYILRRDSKHPKYCIELSAQPVGLIRVHKVLVVGSTQDSLHGFTHKGKKLWTVQMPAAILTMNLLEQHSRGLQAVMAGLANGEVRIYRDKALLNVIHTPDAVTSLCFGRYGREDNTLIMTTRGGGLIIKILKRTAVFVEGGSEVGPPPAQAMKLNVPRKTRLYVDQTLREREAGTAMHRAFQTDLYKLRLRAARAYLQALESSLSPLSTTAREPLKLHAVVQGLGPTFKLTLHLQNTSTTRPVLGLLVCFLYNEALYSLPRAFFKVPLLVPGLNYPLETFVESLSNKGISDIIKVLVLREGQSAPLLSAHVNMPGSEGLAAA [L458K] | with no effect |
| MAAASSSDSDACGAESNEANSKWLDAHYDPMANIHTFSACLALADLHGDGEYKLVVGDLGPGGQQPRLKVLKGPLVMTESPLPALPAAAATFLMEQHEPRTPALALASGPCVYVYKNLRPYFKFSLPQLPPNPLEQDLWNQAKEDRIDPLTLKEMLESIRETAEEPLSIQSLRFLQLELSEMEAFVNQHKSNSIKRQTVITTMTTLKKNLADEDAVSCLVLGTENKELLVLDPEAFTILAKMSLPSVPVFLEVSGQFDVEFRLAAACRNGNIYILRRDSKHPKYCIELSAQPVGLIRVHKVLVVGSTQDSLHGFTHKGKKLWTVQMPAAILTMNLLEQHSRGLQAVMAGLANGEVRIYRDKALLNVIHTPDAVTSLCFGRYGREDNTLIMTTRGGGLIIKILKRTAVFVEGGSEVGPPPAQAMKLNVPRKTRLYVDQTLREREAGTAMHRAFQTDLYLARLRAARAYLQALESSLSPLSTTAREPLKLHAVVQGLGPTFKLTLHLQNTSTTRPVLGLLVCFLYNEALYSLPRAFFKVPLLVPGLNYPLETFVESLSNKGISDIIKVLVLREGQSAPLLSAHVNMPGSEGLAAA [L459A] | with no effect |
| MAAASSSDSDACGAESNEANSKWLDAHYDPMANIHTFSACLALADLHGDGEYKLVVGDLGPGGQQPRLKVLKGPLVMTESPLPALPAAAATFLMEQHEPRTPALALASGPCVYVYKNLRPYFKFSLPQLPPNPLEQDLWNQAKEDRIDPLTLKEMLESIRETAEEPLSIQSLRFLQLELSEMEAFVNQHKSNSIKRQTVITTMTTLKKNLADEDAVSCLVLGTENKELLVLDPEAFTILAKMSLPSVPVFLEVSGQFDVEFRLAAACRNGNIYILRRDSKHPKYCIELSAQPVGLIRVHKVLVVGSTQDSLHGFTHKGKKLWTVQMPAAILTMNLLEQHSRGLQAVMAGLANGEVRIYRDKALLNVIHTPDAVTSLCFGRYGREDNTLIMTTRGGGLIIKILKRTAVFVEGGSEVGPPPAQAMKLNVPRKTRLYVDQTLREREAGTAMHRAFQTDLYLKRLRAARAYLQALESSLSPLSTTAREPLKLHAVVQGLGPTFKLTLHLQNTSTTRPVLGLLVCFLYNEALYSLPRAFFKVPLLVPGLNYPLETFVESLSNKGISDIIKVLVLREGQSAPLLSAHVNMPGSEGLAAA [L459K] | with no effect |

Now from value to variant:

| effect of a mutation on the interaction | Variant |
| --- | --- |
| with no effect | MAAASSSDSDACGAESNEANSKWLDAHYDPMANIHTFSACLALADLHGDGEYKLVVGDLGPGGQQPRLKVLKGPLVMTESPLPALPAAAATFLMEQHEPRTPALALASGPCVYVYKNLRPYFKFSLPQLPPNPLEQDLWNQAKEDRIDPLTLKEMLESIRETAEEPLSIQSLRFLQLELSEMEAFVNQHKSNSIKRQTVITTMTTLKKNLADEDAVSCLVLGTENKELLVLDPEAFTILAKMSLPSVPVFLEVSGQFDVEFRLAAACRNGNIYILRRDSKHPKYCIELSAQPVGLIRVHKVLVVGSTQDSLHGFTHKGKKLWTVQMPAAILTMNLLEQHSRGLQAVMAGLANGEVRIYRDKALLNVIHTPDAVTSLCFGRYGREDNTLIMTTRGGGLIIKILKRTAVFVEGGSEVGPPPAQAMKLNVPRKTRLYVDQTLREREAGTAMHRAFQTDLYLLRARAARAYLQALESSLSPLSTTAREPLKLHAVVQGLGPTFKLTLHLQNTSTTRPVLGLLVCFLYNEALYSLPRAFFKVPLLVPGLNYPLETFVESLSNKGISDIIKVLVLREGQSAPLLSAHVNMPGSEGLAAA [L461A] |
| with no effect | MAAASSSDSDACGAESNEANSKWLDAHYDPMANIHTFSACLALADLHGDGEYKLVVGDLGPGGQQPRLKVLKGPLVMTESPLPALPAAAATFLMEQHEPRTPALALASGPCVYVYKNLRPYFKFSLPQLPPNPLEQDLWNQAKEDRIDPLTLKEMLESIRETAEEPLSIQSLRFLQLELSEMEAFVNQHKSNSIKRQTVITTMTTLKKNLADEDAVSCLVLGTENKELLVLDPEAFTILAKMSLPSVPVFLEVSGQFDVEFRLAAACRNGNIYILRRDSKHPKYCIELSAQPVGLIRVHKVLVVGSTQDSLHGFTHKGKKLWTVQMPAAILTMNLLEQHSRGLQAVMAGLANGEVRIYRDKALLNVIHTPDAVTSLCFGRYGREDNTLIMTTRGGGLIIKILKRTAVFVEGGSEVGPPPAQAMKLNVPRKTRLYVDQTLREREAGTAMHRAFQTDLYLLRERAARAYLQALESSLSPLSTTAREPLKLHAVVQGLGPTFKLTLHLQNTSTTRPVLGLLVCFLYNEALYSLPRAFFKVPLLVPGLNYPLETFVESLSNKGISDIIKVLVLREGQSAPLLSAHVNMPGSEGLAAA [L461E] |
